Our source for the BSA binding values is patent publication US10501734B2, “Compositions and methods of use thereof for making polypeptides with many instances of nonstandard amino acids” (Yale University, priority 2014, dated 2019).

Non-standard residues stand in square brackets, D forms with d. Phe(4-N3) = [N-]=[N+]=Nc1ccc(C[C@H](N)C(=O)O)cc1

The assay deals with BSA (Bos taurus, UniProt P02769). Nature of the assay: Binding to BSA coated agarose beads, GFP fluorescence. The following applies: palmitic acid conjugated; 30 vs. 1 pAzF instances. The text has this:
When supplied with insufficient amounts of alkyne (a ratio of 0.125, 0.25 and 0.5 alkyne:azide), a partial shift was observed as well as a “smear” of the protein band that signifies stochastic reaction of less than 30 sites. In contrast, when sufficient alkyne was supplied, a sharp band is apparent with a consistent size shift compared with the unreacted control. Next, ELP-GFP containing either 30 azide groups or a single azide group and 30 tyrosine groups were contacted with BSA coated agarose beads. The beads were subsequently washed and the amount of protein bound to the beads was measured via GFP fluorescence. The results are illustrated in FIG. 11.

Sequence of BSA (P02769 25-607): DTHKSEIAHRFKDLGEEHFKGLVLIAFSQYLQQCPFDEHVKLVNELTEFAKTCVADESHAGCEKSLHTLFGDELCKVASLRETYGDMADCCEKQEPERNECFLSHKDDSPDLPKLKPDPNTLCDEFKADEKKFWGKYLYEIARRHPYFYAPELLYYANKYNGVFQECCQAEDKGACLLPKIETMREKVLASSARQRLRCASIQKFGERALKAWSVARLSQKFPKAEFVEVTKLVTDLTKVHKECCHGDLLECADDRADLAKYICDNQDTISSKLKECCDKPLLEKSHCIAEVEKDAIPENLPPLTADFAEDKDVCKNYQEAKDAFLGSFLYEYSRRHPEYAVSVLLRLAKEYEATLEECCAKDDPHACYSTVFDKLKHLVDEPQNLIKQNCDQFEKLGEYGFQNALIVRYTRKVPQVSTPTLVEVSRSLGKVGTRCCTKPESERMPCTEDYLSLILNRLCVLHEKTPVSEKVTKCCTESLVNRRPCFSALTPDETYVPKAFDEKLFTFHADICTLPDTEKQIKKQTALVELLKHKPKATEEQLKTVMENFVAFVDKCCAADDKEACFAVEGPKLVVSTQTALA

B1: ELPs containing 30 pAzF nsAAs: ELP(30TAG)-GFP with 30 pAzF conjugated by click reaction to palmitic acid-alkyne (conjugate)
chain: SKGPGVPGGGVPGAGVPG[Phe(4-N3)](palmitic acid‑alkyne)GVPGGGVPGAGVPG[Phe(4-N3)](palmitic acid‑alkyne)GVPGGGVPGAGVPG[Phe(4-N3)](palmitic acid‑alkyne)GVPGGGVPGAGVPG[Phe(4-N3)](palmitic acid‑alkyne)GVPGGGVPGAGVPG[Phe(4-N3)](palmitic acid‑alkyne)GVPGGGVPGAGVPG[Phe(4-N3)](palmitic acid‑alkyne)GVPGGGVPGAGVPG[Phe(4-N3)](palmitic acid‑alkyne)GVPGGGVPGAGVPG[Phe(4-N3)](palmitic acid‑alkyne)GVPGGGVPGAGVPG[Phe(4-N3)](palmitic acid‑alkyne)GVPGGGVPGAGVPG[Phe(4-N3)](palmitic acid‑alkyne)GVPGGGVPGAGVPG[Phe(4-N3)](palmitic acid‑alkyne)GVPGGGVPGAGVPG[Phe(4-N3)](palmitic acid‑alkyne)GVPGGGVPGAGVPG[Phe(4-N3)](palmitic acid‑alkyne)GVPGGGVPGAGVPG[Phe(4-N3)](palmitic acid‑alkyne)GVPGGGVPGAGVPG[Phe(4-N3)](palmitic acid‑alkyne)GVPGGGVPGAGVPG[Phe(4-N3)](palmitic acid‑alkyne)GVPGGGVPGAGVPG[Phe(4-N3)](palmitic acid‑alkyne)GVPGGGVPGAGVPG[Phe(4-N3)](palmitic acid‑alkyne)GVPGGGVPGAGVPG[Phe(4-N3)](palmitic acid‑alkyne)GVPGGGVPGAGVPG[Phe(4-N3)](palmitic acid‑alkyne)GVPGGGVPGAGVPG[Phe(4-N3)](palmitic acid‑alkyne)GVPGGGVPGAGVPG[Phe(4-N3)](palmitic acid‑alkyne)GVPGGGVPGAGVPG[Phe(4-N3)](palmitic acid‑alkyne)GVPGGGVPGAGVPG[Phe(4-N3)](palmitic acid‑alkyne)GVPGGGVPGAGVPG[Phe(4-N3)](palmitic acid‑alkyne)GVPGGGVPGAGVPG[Phe(4-N3)](palmitic acid‑alkyne)GVPGGGVPGAGVPG[Phe(4-N3)](palmitic acid‑alkyne)GVPGGGVPGAGVPG[Phe(4-N3)](palmitic acid‑alkyne)GVPGGGVPGAGVPG[Phe(4-N3)](palmitic acid‑alkyne)GVPGGGVPGAGVPG[Phe(4-N3)](palmitic acid‑alkyne)GPGGGG-{GFP}
modifications: also: conjugated by click reaction
notes: ELP(30TAG)-GFP with 30 pAzF conjugated by click reaction to palmitic acid-alkyne
Take B1: the BSA binding entry is reported as “improved BSA binding”.
